Reference: patent US20210070872A1 (AGENUS, published 2021)

T1: biotinylated GITR (human, UniProt Q9Y5U5 26-161, limits assumed, biotinylated (sites not given))
T1 construct: also called GITR-bio; Biotin-GITR
T1 sequence: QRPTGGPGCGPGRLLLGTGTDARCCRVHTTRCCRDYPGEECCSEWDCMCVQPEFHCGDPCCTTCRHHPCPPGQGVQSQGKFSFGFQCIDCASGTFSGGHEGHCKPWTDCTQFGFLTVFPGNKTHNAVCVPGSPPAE


Biological target: T1, biotinylated GITR
Test: BLI (Octet), biotin-GITR on streptavidin tips, antibody supernatant
Protocol: Several hundred germlined antibodies were selected based on binding kinetics as determined by Octet measurements (Octet RED 96 system; ForteBio™ Inc., Menlo Park, Calif.). The experimental procedure was configured according to the instruction manual of the instrument. Biotin-GITR was bound to Streptavidin biosensor (SA) and PBS (pH 7.4) was used as a blank control. Briefly, the interaction analyses were conducted at 30° C. in running buffer (PBS, 0.05% Tween, pH7.4). Sensor tips were pre-wet for 10 minutes in running buffer immediately prior to use, and the micro plates used in the Octet were filled with 200 μl of sample or buffer per well and agitated at 800 rpm. For the experiments, commercially available precoated SA tips were used. Biotinylated GITR was loaded onto the ForteBio SA fibers in PBS pH7.4 for 10 minutes and washed for 4 minutes. For the association phase, the ligand-coated SA tips were immersed for 5 minutes in cell culture supernatant that was diluted 1:10 in running buffer prior to the measurement. Dissociation of the antibody-antigen complex was measured in wells containing the Octet buffer alone for 5 minutes. After each run, the tips were regenerated with Glycine (10 mM, pH 2.0). Affinity, Kₒₙ and Koff were determined with Octet evaluation software v6.3 using a 1:1 binding model with local full fitting.

Row | Binder | Kd [nM] | koff [s⁻¹] | kon [M⁻¹ s⁻¹]
1 | germline variant antibody 59 (H1916G05 / K1916G05) (antibody, V domains shown, IGHG1/IGKC expression vectors; measured from CHO culture supernatant; also called Antibody ID 59) VH: QVQLVQSGAEVKKPGASVKVSCKASGYTFTEYAMYWVRQAPGQGLEWMGLIRTYSGGVSYNQKFRDRVTMTVDKSISTAYMELSRLRSDDTAVYYCAKSGTVRGFAYWGQGTLVTVSS VL: DIVMTQSPDSLAVSLGERATINCKSSQSLLNSSNQKNYLSWYHQKPGQPPKLLIYWASTRESGVPDRFSGSGSGTDFTLTISSVQAEDVAVYHCQNDYSYPYTFGQGTKLEIK | 1.04 | 0.000312 | 299000
2 | germline variant antibody 61 (H1917A02 / K1917A02) (antibody, V domains shown, IGHG1/IGKC expression vectors; measured from CHO culture supernatant; also called Antibody ID 61) VH: QVQLVQSGTEVKKPGASVKVSCKASGYTFTEYAMHWVRQAPGQGLEWMGLIRTYSGGVSYNQKFQERVTMTVDKSISTAYMELSRLRSDDTAVYYCAKSGTVRGFAYWGQGTLVTVSS VL: DIVMTQSPDSLAVSLGERATINCKSSQSLLNSGNQKNYLSWYQQKPGQPPKLLIYWASTRESGVPDRFSGSGSGTDFTLTISSVQAEDVAVYYCQNDYSFPYTFGQGTKLEIK | 1.83 | 0.00141 | 772000
3 | germline variant antibody 54 (H1916F09 / K1916F09) (antibody, V domains shown, IGHG1/IGKC expression vectors; measured from CHO culture supernatant; also called Antibody ID 54) VH: QVQLVQSGAEVKKPGASVKVSCKASGYTFTEYAMHWVRQAPGQGLEWMGLIRTYSGGVSYNQKFQGRATMTVDTSISTAYMELSRLRSDDTAVYYCAKSGTVRGFAYWGQGTLVTVSS VL: DIVMTQSPDSLAVSLGERATINCKSSQSLLNSSNQKNYLTWYQQKPGQPPKLLIYWASTRESGVPDRFTGSGSGTDFTLTISSVQAEDVAVYHCQNDYSFPYTFGQGTKLEIK | 1.26 | 0.000688 | 548000
4 | germline variant antibody 55 (H1916F10 / K1916F10) (antibody, V domains shown, IGHG1/IGKC expression vectors; measured from CHO culture supernatant; also called Antibody ID 55) VH: QVQLVQSGTEVKKPGASVKVSCKASGYTFTDYAMYWVRQAPGQGLEWIGLIRTYSGGVTYNQKFQGRVTMTVDTSISTAYMELSRLRSDDTAVYYCAKSGTVRGFAYWGQGTLVTVSS VL: DIVMTQSPDSLAVSLGERATINCKSSQSLLNSGNQKNYLSWYQQKPGQPPKLLIYWASTRESGVPDRFSGSGSGTDFTLTISSVQAEDVAVYHCQNDYSFPYTFGQGTKLEIK | 1.27 | 0.00055 | 435000
5 | germline variant antibody 50 (H1916F03 / K1916F03) (antibody, V domains shown, IGHG1/IGKC expression vectors; measured from CHO culture supernatant; also called Antibody ID 50) VH: QVQLVQSGTEVKKPGASVKVSCKASGYTFTDYAMYWVRQAPGQGLEWIGLIRTFSGGVSYNQKFKERVTMTVDKSISTAYMELSRLRSDDTAVYYCAKSGTVRGFAYWGQGTLVTVSS VL: DIVMTQSPDSLAVSLGERATINCKSSQSLLNSSNQKNYLTWYQQKPGQPPKMLIYWASTRESGVPDRFSGSGSGTDFTLTISSLQAEDVAVYYCQNDYSYPYTFGQGTKLEIK | 1.01 | 0.000254 | 252000
6 | germline variant antibody 75 (H1917C09 / K1917C09) (antibody, V domains shown, IGHG1/IGKC expression vectors; measured from CHO culture supernatant; also called Antibody ID 75) VH: QVQLVQSGTEVKKPGASVKVSCKGSGYTFTGYAMYWVRQAPGQGLEWIGVIRTYSGGVTYNQKFQGRVTMTVDKSISTAYMELSRLRSDDTAVYYCAKSGTVRGFAYWGQGTLVTVSS VL: DIVMTQSPDSLAVSLGERATINCKSSQSLLNSGNQKNYLSWYHQKPGQPPKLLIYWASTRESGVPDRFTGSGSGTDFTLTISSLQAEDVAVYYCQNDYSYPYTFGQGTKLEIK | 2.92 | 0.000925 | 317000
7 | germline variant antibody 47 (H1916E08 / K1916E08) (antibody, V domains shown, IGHG1/IGKC expression vectors; measured from CHO culture supernatant; also called Antibody ID 47) VH: QVQLVQSGAEVKKPGASVKVSCKASGYTFTDYAMYWVRQAPGQGMEWMGVIRTYSGGVTYNQKFRDRVTMTVDKSISTAYMELSRLRSDDTAVYYCAKSGTVRGFADWGQGTLVTVSS VL: DIVMTQSPDSLAVSLGERATINCKSSQSLLNSGNQKNYLSWYQQKPGQPPKLLIYWASTRESGVPDRFTGSGSGTDFTLTISSVQAEDVAVYHCQNDYSFPYTFGQGTKLEIK | 2.06 | 0.000804 | 391000
8 | germline variant antibody 85 (H1917E02 / K1917E02) (antibody, V domains shown, IGHG1/IGKC expression vectors; measured from CHO culture supernatant; also called Antibody ID 85) VH: QVQLVQSGAEVKKPGASVKVSCKASGYTFTEYAMYWVRQAPGQGLEWMGVIRTYSGGVTYNQKFKDRATMTVDTSISTAYMELSRLRSDDTAVYYCAKSGTVRGFAYWGQGTLVTVSS VL: DIVMTQSPDSLAVSLGERATINCKSSQSLLNSSNQKNYLSWYHQKPGQPPKLLIYWASTRESGVPDRFSGSGSGTDFTLTISSVQAEDVAVYYCQNDYSYPYTFGQGTKLEIK | 1.28 | 0.00037 | 289000
9 | germline variant antibody 80 (H1917D07 / K1917D07) (antibody, V domains shown, IGHG1/IGKC expression vectors; measured from CHO culture supernatant; also called Antibody ID 80) VH: QVQLVQSGTEVKKPGASVKVSCKASGYTFTEYAMHWVRQAPGQGMEWMGLIRTFSGDVSYNQKFRGRVTMTVDTSISTAYMELSRLRSDDTAVYYCAKSGTVRGFAYWGQGTLVTVSS VL: DIVMTQSPDSLAVSLGERATINCKSSQSLLNSSNQKNYLTWYQQKPGQPPKLLIYWASTRESGVPDRFTGSGSGTDFTLTISSLQAEDVAVYYCQNDYSFPYTFGQGTKLEIK | 0.696 | 0.000454 | 652000

Further lines, results first:

Row | Kd [nM] | koff [s⁻¹] | kon [M⁻¹ s⁻¹] | Binder
10 | 0.562 | 0.000255 | 455000 | germline variant antibody 45 (H1916E05 / K1916E05) (antibody, V domains shown, IGHG1/IGKC expression vectors; measured from CHO culture supernatant; also called Antibody ID 45) VH: QVQLVQSGAEVKKPGASVKVSCKGSGYTFTEYAMYWVRQAPGQGLEWIGLIRTYSGGVSYNQKFQGRVTMTVDTSISTAYMELSRLRSDDTAVYYCAKSGTVRGFAYWGQGTFVTVSS VL: DIVMTQSPDSLAVSLGERATINCKSSQSLLNSGNQKNYLSWYHQKPGQPPKLLIYWASTRESGVPDRFTGSGSGTDFTLTISSVQAEDVAVYYCQNDYSFPYTFGQGTKLEIK
11 | 0.241 | 0.000252 | 1.05e+06 | germline variant antibody 71 (H1917B07 / K1917B07) (antibody, V domains shown, IGHG1/IGKC expression vectors; measured from CHO culture supernatant; also called Antibody ID 71) VH: QVQLVQSGAEVKKPGASVKVSCKASGYTFTGYAMYWVRQAPGQGMEWMGVIRTFSGGVTYNQKFRGRATMTVDTSISTAYMELSRLRSDDTAVYYCAKSGTVRGFAYWGQGTLVTVSS VL: DIVMTQSPDSLAVSLGERATINCKSSQSLLNSSNQKNYLTWYQQKPGQPPKLLIYWASTRESGVPDRFTGSGSGTDFTLTISSVQAEDVAVYHCQNDYSYPYTFGQGTKLEIK
12 | 1.58 | 0.000415 | 263000 | germline variant antibody 58 (H1916G04 / K1916G04) (antibody, V domains shown, IGHG1/IGKC expression vectors; measured from CHO culture supernatant; also called Antibody ID 58) VH: QVQLVQSGAEVKKPGASVKVSCKGSGYTFTDYAMYWVRQAPGQGLEWMGVIRTYSGGVTYNQKFKGRATMTVDKSISTAYMELSRLRSDDTAVYYCAKSGTVRGFAYWGQGTLVTVSS VL: DIVMTQSPDSLAVSLGERATINCKSSQSLLNSGNQKNYLSWYHQKPGQPPKLLIYWASTRESGVPDRFSGSGSGTDFTLTISSVQAEDVAVYHCQNDYSYPYTFGQGTKLEIK
13 | 1.55 | 0.000447 | 289000 | germline variant antibody 68 (H1917B01 / K1917B01) (antibody, V domains shown, IGHG1/IGKC expression vectors; measured from CHO culture supernatant; also called Antibody ID 68) VH: QVQLVQSGTEVKKPGASVKVSCKGSGYTFTGYAMYWVRQAPGQGLEWIGLIRTYSGGVTYNQKFRGRVTMTVDTSISTAYMELSRLRSDDTAVYYCAKSGTVRGFAYWGQGTLVTVSS VL: DIVMTQSPDSLAVSLGERATINCKSSQSLLNSGNQKNYLTWYQQKPGQPPKMLIYWASTRESGVPDRFTGSGSGTDFTLTISSLQAEDVAVYYCQNDYSYPYTFGQGTKLEIK
14 | 0.619 | 0.000248 | 400000 | germline variant antibody 46 (H1916E06 / K1916E06) (antibody, V domains shown, IGHG1/IGKC expression vectors; measured from CHO culture supernatant; also called Antibody ID 46) VH: QVQLVQSGAEVKKPGASVKVSCKASGYTFTEYAMYWVRQAPGQGLEWMGLIRTFSGDLSYNQKFRGRVTMTVDTSISTAYMELSRLRSDDTAVYYCAKSGTVRGFAYWGQGTLVTVSS VL: DIVMTQSPDSLAVSLGERATINCKSSQSLLNSGNQKNYLSWYHQKPGQPPKLLIYWASTRESGVPDRFTGSGSGTDFTLTISSLQAEDVAVYHCQNDYSYPYTFGQGTKLEIK
15 | 2.72 | 0.00105 | 386000 | germline variant antibody 76 (H1917C10 / K1917C10) (antibody, V domains shown, IGHG1/IGKC expression vectors; measured from CHO culture supernatant; also called Antibody ID 76) VH: QVQLVQSGAGVKKPGASVKVSCKGSGYTFTDYAMHWVRQAPGQGLEWMGLIRTFSGDVSYNQKFRERATMTVDKSISTAYMELSRLRSDDTAVYYCAKSGTVRGFAYWGQGTLVTVSS VL: DIVMTQSPDSLAVSLGERATINCKSSQSLLNSGNQKNYLSWYQQKPGQPPKMLIYWASTRESGVPDRFSGSGSGTDFTLTISSVQAEDVAVYHCQNDYSFPYTFGQGTKLEIK
16 | 0.75 | 0.000432 | 577000 | germline variant antibody 86 (H1917E03 / K1917E03) (antibody, V domains shown, IGHG1/IGKC expression vectors; measured from CHO culture supernatant; also called Antibody ID 86) VH: QVQLVQSGAEVKKPGASVKVSCKGSGYTFTEYAMYWVRQAPGQGMEWMGVIRTYSGGVTYNQKFRDRATMTVDTSISTAYMELSRLRSDDTAVYYCAKSGTVRGFAYWGQGTLVTVSS VL: DIVMTQSPDSLAVSLGERATINCKSSQSLLNSGNQKNYLTWYHQKPGQPPKLLIYWASTRESGVPDRFSGSGSGTDFTLTISSVQAEDVAVYYCQNDYSYPYTFGQGTKLEIK
17 | 2.87 | 0.00129 | 450000 | germline variant antibody 79 (H1917D04 / K1917D04) (antibody, V domains shown, IGHG1/IGKC expression vectors; measured from CHO culture supernatant; also called Antibody ID 79) VH: QVQLVQSGTEVKKPGASVKVSCKGSGYTFTEYAMHWVRQAPGQGMEWMGLIRTYSGGVTYNQKFRERVTMTVDKSISTAYMELSRLRSDDTAVYYCAKSGTVRGFAYWGQGTLVTVSS VL: DIVMTQSPDSLAVSLGERATINCKSSQSLLNSGNQKNYLTWYHQKPGQPPKMLIYWASTRESGVPDRFSGSGSGTDFTLTISSLQAEDVAVYYCQNDYSYPYTFGQGTKLEIK
18 | 1.07 | 0.000426 | 397000 | germline variant antibody 52 (H1916F05 / K1916F05) (antibody, V domains shown, IGHG1/IGKC expression vectors; measured from CHO culture supernatant; also called Antibody ID 52) VH: QVQLVQSGTEVKKPGASVKVSCKGSGYTFTDYAMYWVRQAPGQGLEWMGLIRTYSGGVSYNQKFRERVTMTVDKSISTAYMELSRLRSDDTAVYYCAKSGTVRGFAYWGQGTLVTVSS VL: DIVMTQSPDSLAVSLGERATINCKSSQSLLNSGNQKNYLTWYQQKPGQPPKLLIYWASTRESGVPDRFSGSGSGTDFTLTISSLQAEDVAVYHCQNDYSFPYTFGQGTKLEIK
